Data from patent US20250382355A1 (Merck Sharp & Dohme, published 2025).

T1: MERS spike protein on recombinant CHO K1 cells (MERS-CoV, UniProt K9N5Q8 18-1353)
T1 sequence: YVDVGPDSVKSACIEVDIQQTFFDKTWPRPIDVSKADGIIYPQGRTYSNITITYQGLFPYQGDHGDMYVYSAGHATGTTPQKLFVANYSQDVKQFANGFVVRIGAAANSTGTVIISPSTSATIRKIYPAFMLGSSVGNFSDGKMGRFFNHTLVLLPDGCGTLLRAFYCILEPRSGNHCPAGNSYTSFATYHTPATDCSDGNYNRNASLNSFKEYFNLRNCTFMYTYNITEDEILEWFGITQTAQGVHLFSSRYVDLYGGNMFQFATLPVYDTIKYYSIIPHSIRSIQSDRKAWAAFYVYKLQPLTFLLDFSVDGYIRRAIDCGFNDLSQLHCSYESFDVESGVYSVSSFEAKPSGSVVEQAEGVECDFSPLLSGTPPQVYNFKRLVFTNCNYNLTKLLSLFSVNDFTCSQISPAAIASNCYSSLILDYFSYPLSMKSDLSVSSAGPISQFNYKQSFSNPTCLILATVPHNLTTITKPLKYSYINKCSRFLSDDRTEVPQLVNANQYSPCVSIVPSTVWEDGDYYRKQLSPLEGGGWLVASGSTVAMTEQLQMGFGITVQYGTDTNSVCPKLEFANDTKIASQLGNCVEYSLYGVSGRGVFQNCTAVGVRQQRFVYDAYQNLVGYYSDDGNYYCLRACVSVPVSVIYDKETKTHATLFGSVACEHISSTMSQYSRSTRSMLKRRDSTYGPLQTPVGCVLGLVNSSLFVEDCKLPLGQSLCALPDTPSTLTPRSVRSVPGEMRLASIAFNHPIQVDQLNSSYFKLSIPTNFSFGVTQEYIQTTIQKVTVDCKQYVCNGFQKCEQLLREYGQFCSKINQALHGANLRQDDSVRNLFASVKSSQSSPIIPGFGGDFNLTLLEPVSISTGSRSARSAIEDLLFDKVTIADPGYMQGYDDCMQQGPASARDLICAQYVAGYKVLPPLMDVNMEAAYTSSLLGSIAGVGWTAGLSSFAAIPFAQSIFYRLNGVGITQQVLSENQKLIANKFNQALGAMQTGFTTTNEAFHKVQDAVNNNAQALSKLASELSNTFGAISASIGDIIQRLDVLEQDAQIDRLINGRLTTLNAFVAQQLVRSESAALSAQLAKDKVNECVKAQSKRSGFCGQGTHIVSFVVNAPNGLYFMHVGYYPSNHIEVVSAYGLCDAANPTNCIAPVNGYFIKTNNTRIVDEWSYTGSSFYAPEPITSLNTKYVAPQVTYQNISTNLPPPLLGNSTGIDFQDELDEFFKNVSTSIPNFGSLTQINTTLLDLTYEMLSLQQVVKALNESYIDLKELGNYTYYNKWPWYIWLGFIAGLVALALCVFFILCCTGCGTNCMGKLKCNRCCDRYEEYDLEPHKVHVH

T2: OC43 spike protein (human coronavirus OC43, UniProt P36334 14-1278)
T2 sequence: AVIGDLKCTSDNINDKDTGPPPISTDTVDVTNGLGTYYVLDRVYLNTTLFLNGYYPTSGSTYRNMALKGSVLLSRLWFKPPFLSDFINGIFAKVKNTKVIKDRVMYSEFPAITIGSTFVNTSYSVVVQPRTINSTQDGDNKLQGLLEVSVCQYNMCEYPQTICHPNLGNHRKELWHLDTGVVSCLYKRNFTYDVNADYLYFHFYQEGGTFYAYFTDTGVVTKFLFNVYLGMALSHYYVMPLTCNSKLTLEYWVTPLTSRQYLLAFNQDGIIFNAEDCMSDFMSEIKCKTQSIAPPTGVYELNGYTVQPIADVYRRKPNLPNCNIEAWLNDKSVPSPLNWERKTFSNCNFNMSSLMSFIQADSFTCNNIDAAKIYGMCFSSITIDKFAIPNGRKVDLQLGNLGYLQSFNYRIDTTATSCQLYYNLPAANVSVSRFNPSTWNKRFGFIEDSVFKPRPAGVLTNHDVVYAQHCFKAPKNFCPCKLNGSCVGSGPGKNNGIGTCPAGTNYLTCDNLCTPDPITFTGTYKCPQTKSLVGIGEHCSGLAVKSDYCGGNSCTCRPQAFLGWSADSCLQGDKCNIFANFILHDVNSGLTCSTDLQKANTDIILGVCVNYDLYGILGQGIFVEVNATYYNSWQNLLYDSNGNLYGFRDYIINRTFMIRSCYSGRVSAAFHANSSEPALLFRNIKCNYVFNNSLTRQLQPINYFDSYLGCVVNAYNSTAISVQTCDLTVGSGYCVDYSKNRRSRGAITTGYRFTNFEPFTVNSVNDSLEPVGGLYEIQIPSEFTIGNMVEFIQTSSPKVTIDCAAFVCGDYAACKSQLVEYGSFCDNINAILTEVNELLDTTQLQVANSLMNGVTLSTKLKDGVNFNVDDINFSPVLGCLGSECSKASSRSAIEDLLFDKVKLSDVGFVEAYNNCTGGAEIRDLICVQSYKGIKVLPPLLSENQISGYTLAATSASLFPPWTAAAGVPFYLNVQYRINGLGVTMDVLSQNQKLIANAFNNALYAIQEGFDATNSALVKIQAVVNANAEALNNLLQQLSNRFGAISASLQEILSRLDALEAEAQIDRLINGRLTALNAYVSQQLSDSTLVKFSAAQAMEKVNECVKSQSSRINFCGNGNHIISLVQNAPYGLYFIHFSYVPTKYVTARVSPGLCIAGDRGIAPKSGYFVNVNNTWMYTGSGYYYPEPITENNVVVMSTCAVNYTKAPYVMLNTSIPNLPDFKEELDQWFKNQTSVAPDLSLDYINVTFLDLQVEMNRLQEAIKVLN

B1: 10B8 VHH-Fc (Fc fusion)
chain: QVQLVESGGGLVQPGGSLRLSCAASGITLDYYAIAWFRQAPGKEREGVSCFCSSDGDIRYADSVKGRFTISRDNAKNTVYLQMNSLKPEDTAVYYCATERVYSSTWFFHRYSELDFGSWGRGTQVTVSS
B2: 1E4 VHH-Fc (Fc fusion)
chain: QVLLVESGGGLVQAGGLLRLACSASGRTFTENVMGWFRQAPGKEREFVAAINWNTGSTYYSDSRKGRFTISKDNAKNTMFLQINNLKPEDTAVYYCGGTSSSYYYIGEFIPDYWGQGTQVTVSS
B3: 6A1 VHH-Fc (Fc fusion)
chain: QVQLVESGGGLVQAGGSLRLSCTASGNIFSVNVMGWHRQAPGKRRELVAALTNDGRRNYADSVKGRFTISRDNAKNTIYLEMNSLKPEDTAVYYCGTGTLESGFNSWGQGLQVTVSS

Columns and labels:
[1] = target: spike protein of authentic SARS-CoV/Urbani virus (SARS-CoV, UniProt P59594 14-1255); assay: cell-based or functional assay
[2] = target: spike protein of authentic SARS-CoV-2 virus (SARS-CoV-2, UniProt P0DTC2 14-1273); assay: cell-based or functional assay
[3] = target: T3, SARS-CoV-2 spike protein on recombinant CHO K1 cells (SARS-CoV-2, UniProt P0DTC2 14-1273); assay: FACS on CHO K1 cells
T3 construct: whole, on cells

[4] = target: SARS-CoV spike protein on recombinant CHO K1 cells (SARS-CoV, UniProt P59594 14-1255); assay: FACS on CHO K1 cells
[5] = target: T1, MERS spike protein on recombinant CHO …; assay: FACS on CHO K1 cells
[6] = target: SARS-CoV spike on rVSV-deltaG-Luc pseudovirus (SARS-CoV, UniProt P59594 14-1236); assay: cell-based or functional assay
[7] = target: T2, OC43 spike protein; assay: ELISA

| Binder | authentic virus neutralization IC50 [1] | authentic virus neutralization IC50 [2] | EC50 [3] | EC50 [4] | binding result [5] | pseudovirus neutralization IC50 [6] | EC50 [7] | EC50 [5] |
| --- | --- | --- | --- | --- | --- | --- | --- | --- |
| B1 | 0.04 nM | 0.3 nM | 0.19 nM | 0.14 nM | no binding | 0.09 nM | – | – |
| B2 | 0.05 nM | 0.2 nM | 0.06 nM | – | no binding | 0.06 nM | – | – |
| B3 | – | – | 0.14 nM | – | – | – | 0.08 nM | 0.13 nM |
